Test results as given in patent publication US20180055768.

Test system: HA-tagged wt ARRDC1

Chain of GFP-tagged WWP2 (chain, as listed by the source): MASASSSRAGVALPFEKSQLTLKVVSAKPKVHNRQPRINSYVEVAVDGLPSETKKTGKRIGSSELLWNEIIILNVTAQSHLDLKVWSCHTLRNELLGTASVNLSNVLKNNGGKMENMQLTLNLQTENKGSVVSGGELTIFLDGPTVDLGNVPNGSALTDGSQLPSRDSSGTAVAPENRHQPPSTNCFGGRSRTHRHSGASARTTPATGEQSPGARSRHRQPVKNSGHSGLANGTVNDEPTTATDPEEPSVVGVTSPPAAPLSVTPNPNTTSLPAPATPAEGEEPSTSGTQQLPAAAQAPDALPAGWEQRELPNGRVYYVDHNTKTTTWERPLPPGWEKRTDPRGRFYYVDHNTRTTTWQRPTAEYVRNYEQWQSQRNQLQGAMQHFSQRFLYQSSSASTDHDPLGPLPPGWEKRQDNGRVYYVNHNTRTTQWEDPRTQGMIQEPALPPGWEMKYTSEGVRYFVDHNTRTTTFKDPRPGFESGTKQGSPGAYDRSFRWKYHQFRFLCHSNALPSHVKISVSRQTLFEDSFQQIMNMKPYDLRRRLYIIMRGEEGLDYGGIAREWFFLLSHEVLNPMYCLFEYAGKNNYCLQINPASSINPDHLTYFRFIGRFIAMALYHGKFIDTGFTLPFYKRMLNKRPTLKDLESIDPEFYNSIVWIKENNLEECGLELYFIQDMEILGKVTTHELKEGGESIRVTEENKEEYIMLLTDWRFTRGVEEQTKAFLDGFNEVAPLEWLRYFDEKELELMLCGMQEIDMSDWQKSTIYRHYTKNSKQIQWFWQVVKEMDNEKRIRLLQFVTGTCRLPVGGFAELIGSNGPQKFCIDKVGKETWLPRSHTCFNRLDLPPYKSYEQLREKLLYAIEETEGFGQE

Substance: GFP-tagged WWP2
- ubiquitination of ARRDC1 (immunoblot of WCEs and ARMMs): ubiquitination of ARRDC1 was enhanced by WWP2
